Data as given in patent US20250295792A1 (ZONHON BIOPHARMA INSTITUTE, published 2025).
Where no end group is shown, it is not given here. [ ]: non-standard residue; d: D form. 2Thi = N[C@@H](Cc1cccs1)C(=O)O

B1: Lys-BKm01-SPA10K (peptide)
peptide: KRPPGXSPFR
modifications: {THI} (β-2-thiophenylalanine) at position 6; N-terminal single modification with M-SPA-10K (straight-chain mPEG succinimidyl propionate, about 10 kDa)
B2: Lys-BKm01-YNHS10K (peptide)
peptide: KRPPGXSPFR
modifications: {THI} (β-2-thiophenylalanine) at position 6; N-terminal single modification with M-YNHS-10K (branched-chain mPEG succinimidyl acetate, about 10 kDa)
B3: Lys-BK (wild-type lysyl bradykinin) (peptide)
peptide: KRPPGFSPFR
B4: Lys-BKm12 (peptide)
peptide: KRPPG[2Thi]SPFRRPPG[2Thi]SPFR
B5: Lys-BKm14 (peptide)
peptide: KRPPG[2Thi]SPFRKRPPG[2Thi]SPFR
B6: Lys-BKm01 (peptide)
peptide: KRPPGXSPFR
modifications: {THI} (β-2-thiophenylalanine) at position 6: KRPPG{THI}SPFR
B7: Lys-BKm03 (peptide)
peptide: KRPPGHSPFR
B8: Lys-BKm04 (peptide)
peptide: KRPPGFSPHR
B9: Lys-BKm06 (peptide)
peptide: KRPPGXSPFRR
modifications: {THI} (β-2-thiophenylalanine) at position 6: KRPPG{THI}SPFRR
B10: Lys-BKm07 (peptide)
peptide: KRPPGXSPXR
modifications: {THI} (β-2-thiophenylalanine) at positions 6 and 9: KRPPG{THI}SP{THI}R

target: B2 receptor; assay: cell-based or functional assay
Sequence (P30411 whole entry): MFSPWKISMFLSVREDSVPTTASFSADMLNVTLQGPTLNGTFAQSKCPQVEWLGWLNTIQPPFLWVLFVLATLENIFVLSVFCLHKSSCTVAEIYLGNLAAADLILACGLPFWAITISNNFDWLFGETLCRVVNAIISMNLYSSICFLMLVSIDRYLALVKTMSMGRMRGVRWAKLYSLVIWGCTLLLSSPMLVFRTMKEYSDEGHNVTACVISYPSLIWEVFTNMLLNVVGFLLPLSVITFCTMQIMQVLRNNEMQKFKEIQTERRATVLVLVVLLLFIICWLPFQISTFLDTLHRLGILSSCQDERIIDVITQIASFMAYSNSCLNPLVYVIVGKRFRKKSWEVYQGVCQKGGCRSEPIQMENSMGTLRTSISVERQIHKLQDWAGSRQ

Row | Binder | EC50 value (B2 receptor reporter gene assay, FIG. 4a) [µg/mL] | fold activity against Lys-BKm01-YNHS10K (B2 receptor reporter gene assay) [fold]
1 | B1 | 90.8 | ~4
2 | B2 | 347 | –

target: B2 receptor; assay: cell-based or functional assay; remark: another data set of the same source

Row | Binder | Relative affinity activity (B2-NFAT-CHO-K1 luciferase reporter gene assay, from EC50) [%]
3 | B3 | 100
4 | B4 | 100
5 | B5 | 100
6 | B6 | 100
7 | B7 | < 10
8 | B8 | < 10
9 | B9 | 90
10 | B10 | < 10
